How the values were obtained:
HA of H3N2 A/HK/1/68 [1] = target: T1, HA of H3N2 A/HK/1/68 (influenza A virus, UniProt Q91MA7 17-530); assay: BLI steady state
[2] = target: HA of H7N7 A/Common Teal/MPF139/07 (influenza A virus); assay: cell-based or functional assay
HA of H7N9 A/Anhui/1/13 = HA of H7N9 A/Anhui/1/13 (influenza A virus); assay: cell-based or functional assay
[3] = target: HA of H7N9 A/Shanghai/1/13 (influenza A virus); assay: cell-based or functional assay
[4] = target: HA of H7N9 A/Shanghai/2/13 (influenza A virus); assay: cell-based or functional assay
[5] = target: HA of H10N8 A/Jiangxi/346/2013 (influenza A virus); assay: cell-based or functional assay
[6] = target: HA of H10N3 A/Common Teal/MPH11/08 (influenza A virus); assay: cell-based or functional assay
[7] = target: HA of H10N9 A/Northern Shoveler/MPE2531/08 (influenza A virus); assay: cell-based or functional assay
[8] = target: HA of H1N1 A/Puerto Rico/8/34-MA (influenza A virus); assay: cell-based or functional assay
[9] = target: HA of H5N1 A/PR8 H5N1 HK97 (influenza A virus); assay: cell-based or functional assay
HA of H3N2 A/HK/1/68-MA = HA of H3N2 A/HK/1/68-MA (influenza A virus); assay: cell-based or functional assay
HA of H3N2 A/HK/1/68 [10] = target: T1, HA of H3N2 A/HK/1/68; assay: cell-based or functional assay
[11] = target: T2, HA of H7N7 A/Netherlands/219/2003 (influenza A virus, UniProt P36346 19-563); assay: cell-based or functional assay
[12] = target: HA of H2N2 A/Guiyang/1/57 (influenza A virus); assay: cell-based or functional assay
[13] = target: HA of H3N2 A/Panama/2007/99 (influenza A virus); assay: cell-based or functional assay
[14] = target: HA of H4 A/WF/HK/MPA892/06 (influenza A virus); assay: cell-based or functional assay
HA of H7N7 A/PR8 H7N7-NY = HA of H7N7 A/PR8 H7N7-NY (influenza A virus); assay: cell-based or functional assay
[15] = target: HA of H10N7 A/Chick/Germany/N/49 (influenza A virus); assay: cell-based or functional assay
[16] = target: HA of H1N1 A/Mississippi/03/01 274H (influenza A virus); assay: cell-based or functional assay
[17] = target: HA of H1N1 A/Solomon Islands/3/2006 (IVR 145) (influenza A virus); assay: cell-based or functional assay
HA of H1N1 A/WSN/33 = HA of H1N1 A/WSN/33 (influenza A virus, UniProt P03454 18-565); assay: cell-based or functional assay
HA of H1N1 A/HK/54/98 = HA of H1N1 A/HK/54/98 (influenza A virus); assay: cell-based or functional assay
[18] = target: HA of H1N1 A/Christchurch/16/10 (influenza A virus); assay: cell-based or functional assay
[19] = target: HA of H1N2 A/Env/HK/MPU3156/05 (influenza A virus); assay: cell-based or functional assay
[20] = target: HA of H5N1 A/Indonesia/5/05 (influenza A virus); assay: cell-based or functional assay
[21] = target: HA of H5N2 A/Eurasian Wigeon/MPF461/07 (influenza A virus); assay: cell-based or functional assay
[22] = target: HA of H5N2 A/Eurasian Wigeon/HK/MPF333/07 (influenza A virus); assay: cell-based or functional assay
[23] = target: HA of H2N2 A/AnnArbor/23/57 (influenza A virus); assay: cell-based or functional assay
[24] = target: HA of H2N2 A/Env/HK/MPU3156/05 (influenza A virus); assay: cell-based or functional assay
[25] = target: HA of H6N1 A/Eurasian Wigeon/MPG1884/09 (influenza A virus); assay: cell-based or functional assay
[26] = target: HA of H6N1 A/Taiwan/2/2013 (influenza A virus); assay: cell-based or functional assay
[27] = target: HA of H6N8 A/Eurasian Wigeon/MPD411/07 (influenza A virus); assay: cell-based or functional assay
[28] = target: HA of H11N9 A/Northern Pintail/MPC2085/07 (influenza A virus); assay: cell-based or functional assay
[29] = target: HA of H9N2 A/Ck/HK/SSP176/09 (influenza A virus); assay: cell-based or functional assay
[30] = target: HA of H9N2 A/Great Cormorant/MP2934/04 (influenza A virus); assay: cell-based or functional assay
[31] = target: HA of H9N2 A/HK/466419/09 (influenza A virus); assay: cell-based or functional assay
[32] = target: HA of H8N4 A/Eurasian Wigeon/MPH571/08 (influenza A virus); assay: cell-based or functional assay
[33] = target: HA of H8N2 A/Env/MPJ1258/09 (influenza A virus); assay: cell-based or functional assay
[34] = target: HA of H12N5 A/Env/MPK659/09 (influenza A virus); assay: cell-based or functional assay
HA of H3N2 A/Fukui/45/04 = HA of H3N2 A/Fukui/45/04 (influenza A virus); assay: cell-based or functional assay
HA of H3N2 A/Aichi/2/68 = HA of H3N2 A/Aichi/2/68 (influenza A virus, UniProt P03437 17-566); assay: cell-based or functional assay
[35] = target: HA of H3N2 A/Hiroshima/52/05 (influenza A virus); assay: cell-based or functional assay
[36] = target: HA of H3N2 A/Johannesburg/33/94 (influenza A virus); assay: cell-based or functional assay
HA of H3N2 A/Perth/16/09 = HA of H3N2 A/Perth/16/09 (influenza A virus); assay: cell-based or functional assay
[37] = target: HA of H3N2 A/Victoria/210/09 (influenza A virus); assay: cell-based or functional assay
HA of H3N2 A/HK/1174/99 = HA of H3N2 A/HK/1174/99 (influenza A virus); assay: cell-based or functional assay
[38] = target: HA of H4N1 A/Northern Pintail/MPB1368/06 (influenza A virus); assay: cell-based or functional assay
[39] = target: HA of H4N6 A/Great Cormorant/MPB1683/06 (influenza A virus); assay: cell-based or functional assay
[40] = target: HA of H14N5 A/Mallard/Astrakhan/263/1982 (influenza A virus); assay: cell-based or functional assay
[41] = target: HA of H7N7 A/Northern Shoveler/MPF518/08 (influenza A virus); assay: cell-based or functional assay
[42] = target: T2, HA of H7N7 A/Netherlands/219/2003; assay: AlphaLISA competition vs CR9114

B1: SD1036 (VHH)
VHH: EVQLVESGGGLVQAGGSLKLSCAASGRTYAMGWFRQAPGKEREFVAHINALGTRTYYSDSVKGRFTISRDNAKNTEYLEMNNLKPEDTAVYYCTAQGQWRAAPVAVAAEYEFWGQGTQVTVSS
notes: llama sdAb
- Kd (HA of H3N2 A/HK/1/68 [1]): 2 nM
- VNA titer [2]: 18.3 nM
- VNA titer (HA of H7N9 A/Anhui/1/13): 65.9 nM
- VNA titer [3]: 101 nM
- VNA titer [4]: 33 nM
- VNA titer [5]: 83.9 nM
- VNA titer [6]: 28.9 nM
- VNA titer [7]: 19.9 nM
- VNA titer [8]: > 1000 nM
- VNA titer [9]: > 1000 nM
- VNA titer (HA of H3N2 A/HK/1/68-MA): 73.2 nM
- VNA titer (HA of H3N2 A/HK/1/68 [10]): 115 nM
- VNA titer [11]: 28.9 nM
- VNA titer [12]: > 1000 nM
- VNA titer [13]: > 1000 nM
- VNA titer [14]: 40.4 nM
- VNA titer (HA of H7N7 A/PR8 H7N7-NY): 8.8 nM
- VNA titer [15]: 22.2 nM
- VNA titer [16]: > 1000 nM
- VNA titer [17]: > 1000 nM
- VNA titer (HA of H1N1 A/WSN/33): > 1000 nM
- VNA titer (HA of H1N1 A/HK/54/98): > 1000 nM
- VNA titer [18]: > 1000 nM
- VNA titer [19]: > 1000 nM
- VNA titer [20]: > 1000 nM
- VNA titer [21]: > 1000 nM
- VNA titer [22]: > 1000 nM
- VNA titer [23]: > 1000 nM
- VNA titer [24]: > 1000 nM
- VNA titer [25]: > 1000 nM
- VNA titer [26]: > 1000 nM
- VNA titer [27]: > 1000 nM
- VNA titer [28]: > 1000 nM
- VNA titer [29]: > 1000 nM
- VNA titer [30]: 677 nM
- VNA titer [31]: > 1000 nM
- VNA titer [32]: > 1000 nM
- VNA titer [33]: > 1000 nM
- VNA titer [34]: > 1000 nM
- VNA titer (HA of H3N2 A/Fukui/45/04): > 1000 nM
- VNA titer (HA of H3N2 A/Aichi/2/68): 6.5 nM
- VNA titer [35]: > 1000 nM
- VNA titer [36]: 601 nM
- VNA titer (HA of H3N2 A/Perth/16/09): 76.4 nM
- VNA titer [37]: 540 nM
- VNA titer (HA of H3N2 A/HK/1174/99): > 1000 nM
- VNA titer [38]: 80.7 nM
- VNA titer [39]: 44.5 nM
- VNA titer [40]: 16.2 nM
- VNA titer [41]: 44.7 nM
- pIC50 [42]: 9.3
